In article PMC5668257:

Biological target: EB1 (dog (endogenous in MDCK))
Test: FRET or BRET; immuno-FRET by acceptor photobleaching at the centrosome area of fixed mitotic MDCK cells; primary antibodies with secondary antibodies labelled with Alexa 555 (donor) and Cy5 or Alexa 633 (acceptor), 1 donor : 2 acceptor

AKAP350 (natural protein)
FRET efficiency (donor AKAP350, acceptor EB1): 11%
FRET efficiency (donor EB1, acceptor AKAP350): 5%
